Patent US20170224778A1, “COMPOSITIONS AND METHODS THAT TARGET REGULATION OF BREATHING” (The Board of Trustees of the Leland Stanford Junior …, priority 2016, published 2017)
Each block holds one substance with its values, some of them ahead of it.

Columns and labels:
[1] = molecular target: gastrin-releasing peptide receptor (GRPR) on rat preBotC neurons (rat) (UniProt P52500)
[2] = molecular target: neuromedin B receptor (NMBR) on rat preBotC neurons (rat) (UniProt P24053)
[3] = molecular target: gastrin-releasing peptide receptor (GRPR) on rat preBotC neurons (rat) (UniProt P52500); remark: listed apart in the source
[4] = molecular target: neuromedin B receptor (NMBR) on rat preBotC neurons (rat) (UniProt P24053); remark: listed apart in the source
[5] = molecular target: gastrin-releasing peptide receptor (GRPR) on rat preBotC neurons (rat) (UniProt P52500); remark: listed apart in the source
[6] = molecular target: neuromedin B receptor (NMBR) on rat preBotC neurons (rat) (UniProt P24053); remark: listed apart in the source
[7] = molecular target: gastrin-releasing peptide receptor (GRPR) on mouse preBotC neurons (mouse) (UniProt P21729)
[8] = molecular target: neuromedin B receptor (NMBR) on mouse preBotC neurons (mouse) (UniProt O54799)
[9] = molecular target: T1, NMBR (Mus musculus, UniProt O54799); experiment: Doublets (in vitro sigh signature) in explanted preBötC brain slices, NMB effect; type: cell-based; conditions: for doublet frequency increase: neonatal mouse preBötC slices
T1 construct: from tissue; host or cells: 550-μm transverse medullary slices with the preBötC, neonatal C57BL/6 mice (P0-5)
T1 sequence (O54799 1-390): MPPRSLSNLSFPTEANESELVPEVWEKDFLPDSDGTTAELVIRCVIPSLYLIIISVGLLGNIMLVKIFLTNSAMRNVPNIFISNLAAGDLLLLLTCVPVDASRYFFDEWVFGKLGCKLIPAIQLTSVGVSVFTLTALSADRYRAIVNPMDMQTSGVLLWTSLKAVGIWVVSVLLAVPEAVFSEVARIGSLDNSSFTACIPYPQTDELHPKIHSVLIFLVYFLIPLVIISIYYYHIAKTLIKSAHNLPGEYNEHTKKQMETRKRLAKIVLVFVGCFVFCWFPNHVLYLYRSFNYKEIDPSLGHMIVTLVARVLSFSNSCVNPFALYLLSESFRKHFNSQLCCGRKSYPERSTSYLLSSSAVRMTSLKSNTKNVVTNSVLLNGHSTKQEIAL
Method: In vitro slice preparation, recording, and analysis. Rhythmic 550-μm-thick transverse medullary slices containing the preBötC and XII nerve from neonatal C57BL/6 mice (P0-5) were prepared as described previously (Kam et al., 2013). The medullary slice was cut in artificial cerebrospinal fluid (ACSF) containing (in mM): 124 NaCl, 3 KCl, 1.5 CaCl2, 1 MgSO4, 25 NaHCO3, 0.5 NaH2PO4, and 30 D-glucose, equilibrated with 95% O2 and 5% CO2 (4° C., pH=7.4). For recording, extracellular K+ was raised to 9 mM to replace excitatory afferent drive lost in the cutting process. Slices were perfused at 27° C. and 4 ml/min and allowed to equilibrate for 30 minutes. Respiratory activity reflecting suprathreshold action potential (AP) firing from populations of neurons was recorded as XII bursts from either XII nerve roots and as population activity directly from the preBötC using suction electrodes and a MultiClamp 700A or 700B (Molecular Devices, Sunnyvale, Calif., USA), filtered at 2-4 kHz and digitized at 10 kHz. Digitized data were analyzed off-line using custom procedures written for IgorPro (Wavemetrics, Portland, Oreg., USA). Activity was full-wave rectified and digitally integrated with a Paynter filter with a time constant of 20 ms with either custom built electronics or using custom procedures in MATLAB (Mathworks, Natick, Mass., USA). Burst detection and analysis of respiratory-related activity recorded in full-wave rectified XII output or preBötC population recordings were performed using custom software written in IgorPro. Burst parameters were normalized to the mode of the data in the baseline condition. Although there are several proposed definitions of sighs in slice preparations, here we used “doublets” (double-peaked bursts) as the in vitro signature of sighs because, in our preparations, doublets detected both in preBötC neural population activity measurements and cranial nerve XII output recordings shared the increased inspiratory and expiratory duration of sighs. […] All doublets were verified by visual inspection to exclude multipeaked bursts and two bursts that were too far apart. Measured doublet intervals were converted to a calculated per hour doublet rate.

[10] = molecular target: T2, NMBR (Rattus norvegicus, UniProt P24053); experiment: Sighing and breathing of urethane-anesthetized rats after bilateral preBötC injection (NMB pathway); type: in vivo; conditions: 3 μM into preBötC
T2 construct: from tissue; host or cells: preBötC of the ventral medulla of living anesthetized Sprague Dawley rats
T2 sequence (P24053 1-390): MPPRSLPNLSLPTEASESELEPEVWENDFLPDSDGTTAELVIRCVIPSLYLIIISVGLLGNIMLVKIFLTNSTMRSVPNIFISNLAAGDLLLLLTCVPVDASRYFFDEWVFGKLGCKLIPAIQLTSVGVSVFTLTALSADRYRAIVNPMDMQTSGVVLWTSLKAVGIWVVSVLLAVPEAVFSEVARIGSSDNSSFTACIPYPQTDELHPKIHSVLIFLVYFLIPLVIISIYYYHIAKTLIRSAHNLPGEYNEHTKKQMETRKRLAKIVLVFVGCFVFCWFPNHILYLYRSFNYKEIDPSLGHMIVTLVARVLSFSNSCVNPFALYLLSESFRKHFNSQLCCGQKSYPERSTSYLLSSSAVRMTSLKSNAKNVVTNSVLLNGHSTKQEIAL
Method: Sigh monitoring and analysis. For awake animals, individual animals were placed in a whole body plethysmography chamber (Buxco) at room temperature (22° C.) in 21% O2 (for normoxia) or 8% O2 (for hypoxic challenge) balanced with N2. Sighs were identified in plethysmography traces by the characteristic biphasic ramp, the augmented flow in the second phase of the inspiratory effort and the prolongation of expiratory time following the event. Sighs were also confirmed by visual monitoring of breathing behavior. Given the high amplitude and distinctive waveform of sighs relative to standard eupneic breaths, sighs were unambiguously identified by both visual and computer-assisted scoring; no difference was detected in direct comparisons between methods or observers so visual scoring was used. Female 8 week old mice (Nmbr^−/−, Grpr^−/−, or C57BL/6 as wild type control) were allowed to acclimate for 10 minutes in the chamber, and then the first fifteen recorded sighs were used to calculate the sigh rate. […] Rats were allowed to acclimate in the chamber for ˜1 hr, and then baseline sigh rate and respiratory frequency were calculated for the next 2 hrs. For hypoxic (8% O2) challenge, analysis was continued for 30 minutes under the hypoxic condition. For anesthetized rats, the trachea was cannulated and connected to a pneumotachograph (GM Instruments) to record airflow. A flow calibration was performed after every experiment along with a calculation of tidal volume (VT) by digital integration. To monitor diaphragm activity, wire electrodes (Cooner Wre) were implanted into the diaphragm and electromyogram (EMG) signal sampled at 2 kHz (Powerlab 16SP; AD Instruments). Signal was rectified and digitally integrated (time constant of 0.1) to obtain a moving average using LabChart Pro 8 (AD Instruments) and Igor Pro 6 (Data Matrix) software. Sighs were identified in the airflow measurements as above and validated by double peaks in the EMG recordings.
PreBötC injection of NMB and GRP agonists and antagonists. […]

Substance: bombesin-saporin (saporin conjugated with bombesin)
hypoxia-induced sigh rate (8% O2) five days after injection in rats [3]: 5.1 h⁻¹
hypoxia-induced sigh rate (8% O2) five days after injection in rats [4]: 5.1 h⁻¹
basal sigh rate after ablation of receptor-expressing preBotC neurons in rats [5]: 95%
basal sigh rate after ablation of receptor-expressing preBotC neurons in rats [6]: 95%

Substance: neuromedin B [NMB]
doublet frequency increase ([9]; 10 nM, p=0.005, n=7): 1.7 fold
doublet frequency increase ([9]; 30 nM, p=0.003, n=7): 2 fold
overall frequency of bursts and doublets together ([9]; NMB on preBötC slices, p=0.2, n=7): unchanged
fraction of total events that are doublets ([9]; preBötC slice, p<0.05, n=7): increasing
interval following a doublet ([9]; preBötC slice, p<0.05, n=7): decreasing
change in respiratory rate (frequency, f) ([10]; bilateral NMB injection 100 nl, anesthetized rat): little change
sighing increased (fold) ([10]; bilateral microinjection 100 nl, anesthetized adult rats, n=5): 6-17 fold
effect on sighing persisted after injection ([10]; bilateral microinjection 100 nl, effect peaked several minutes after injection): 10 to 15 min

Substance: saporin conjugated with a non-targeted peptide (blank SAP)
basal and hypoxia-induced sigh rate in control rats [3]: 140 h⁻¹
basal and hypoxia-induced sigh rate in control rats [4]: 140 h⁻¹

Now from value to substance:

basal sigh rate after bilateral preBotC injection in anesthetized rats [1]: 50%
Substance: GRPR antagonist RC3095

basal sigh rate after bilateral preBotC injection in anesthetized rats [2]: 50%
Substance: NMBR antagonist BIM23042

doublets (in vitro signature of a sigh) in mouse preBotC slices [7]: 1.7 fold
Substance: gastrin releasing peptide (GRP) neuropeptide

doublet frequency (in vitro signature of a sigh) in mouse preBotC slices [8]: 2 fold
Substance: neuromedin B (NMB) neuropeptide
